According to publication PMC12049912 (2025):

B1: T3-3 (TCR)
alpha TRAV13-4 TRAJ30 CDR3: CAMEHDTNAYKVIF
beta TRBV12-1 TRBJ2-1 CDR3: CASSLRGYAEQFF
B2: T1-3 (TCR)
alpha TRAV19 TRAJ40 CDR3: CAAGGFNTGNYKYVF
beta TRBV19 TRBJ2-7 CDR3: CASSIRQGSGEQYF
B3: T3-3/2 (TCR)
alpha TRAV19 TRAJ40 CDR3: CAAGGVNTGNYKYVF
beta TRBV12-1 TRBJ2-1 CDR3: CASSLRGYAEQFF
B4: 1D9 (TCR)
alpha TRAV1 TRAJ30 CDR3: CAVRSDTNAYKVIF
beta TRBV19 TRBJ2-7 CDR3: CASSKRLSSYEQYF

What was measured:
[1] = biological target: T1, p68 S551F (mp68; DDX5 S551F) peptide on H-2Kb (mouse); test: multimer staining
T1 peptide: SNFVFAGI

[2] = biological target: T1, p68 S551F (mp68; DDX5 S551F) peptide on …; test: cytokine release

Binder	binding result [1]	binding result [2]
B1	no recognition	–
B2	no recognition	–
B3	no recognition	–
B4	–	recognises
